Reference: paper PMC6465249 (Cell Discovery, 2019)

Biological target: Recombinant hemagglutinin of H3N2 A/Texas/50/2012, ectodomain, monomeric (Influenza A virus A/Texas/50/2012 (H3N2), UniProt R4L1D1, strain)
Test: SPR
Details: both partners purified

B1: AF4H1K1 Fab (Fab, V domains shown)
VH: QVQLVESGGGVVQPGTSLRLSCEASGFTSSAYAMHWVRQAPGKGLEWVAVITFDGGYQYYADSVKGRFTISRDISRNTLHLHMNSLRAEDTAVYYCARDPLTKLLPFDWVSGGYFDYWGQGTLVTVSS
VL: not shown
notes: also called H1 paired with K1
In the case of B1, the Kd is reported as 49 nM.
